Experimental data published in patent publication US20080220446A1, “Method for Detecting and/or Removing Protein and/or Peptide Comprising a Cross-Beta Structure From an Aqueous Solution Comprising a Protein” (priority 2005, published 2008).

Columns and labels:
[1] = Thioflavin T fluorescence of protein solutions; assay type: physicochemical
Protocol: Fluorescence of ThT—protein/peptide adducts was measured as follows. […] Fluorescence was measured at 485 nm upon excitation at 435 nm. Background signals from buffer, buffer with ThT and protein/peptide solution without ThT were subtracted from corresponding measurements with protein solution incubated with ThT. Regularly, fluorescence of Aβ was used as a positive control, and fluorescence of FP10, a non-amyloid fibrin fragment^16, was used as a negative control. Fluorescence was measured in triplicate on a Hitachi F-4500 fluorescence spectrophotometer (Ltd., Tokyo, Japan).
(§1) Formulated protein therapeutics were obtained from the local hospital pharmacy and were used as supplied by the manufacturers. […] Lyophilized therapeutics were dissolved according to the manufacturers recommendations. GH, zinc-insulin, Cealb and gelatin were stored at −20, 4, room temperature, 37 and 65° C. Other protein therapeutics were only kept at 4° C., and assayed for the presence of cross-β structure at shown time points. Enhancement in fluorescence of ThT and Congo red was measured with all formulated protein therapeutics. For this purpose, proteins were diluted to the indicated concentrations. […] Zinc-insulin was diluted tenfold in the activation assay, GH was diluted to a final concentration of 500 μg ml^−1. Activation of factor XII and prekallikrein by the therapeutics was tested in the chromogenic factor XII assay (see above). […] After coating, plates were blocked with Blocking Reagent (Roche Diagnostics, Almere, The Netherlands).
ThT fluorescence of β2GPI was measured as follows. […] CL vesicles were prepared according to an established procedure. Briefly, CL was dried under a stream of nitrogen. The lipids were resuspended to a concentration of 10 mg ml^−1 in 25 mM Tris-HCl, pH 7.3, 150 mM NaCl by vigorous agitation, using a vortex. In the ThT fluorescence assay, fluorescence of β2GPI in buffer, of CL or DXS500k in buffer, of buffer and ThT alone, and of β2GPI-CL adducts and β2GPI-DXS500k adducts, with or without ThT, was recorded as described above (section ThT fluorescence). In addition, TEM images were recorded with CL, β2GPI from human plasma, with or without CL, and with recombinant β2GPI, as described^5.
To prepare structurally altered ovalbumin (OVA) with amyloid cross-β structures, purified OVA (Sigma, A-7641, lot 071k7094) was heated to 85° C. One mg ml^−1 OVA in 67 mM NaPi buffer pH 7.0, 100 mM NaCl, was heated for two cycles in PCR cups in a PTC-200 thermal cycler (MJ Research, Inc., Waltham, Mass., USA). In each cycle, OVA was heated from 30 to 85° C. at a rate of 5° C./min. Native OVA (nOVA) and heat-denatured OVA (dOVA) were tested in the ThT fluorescence assay and in the Plg-activation assay. In the fluorescence assay and in the Plg-activation assay, 25 and 100 μg ml^−1 nOVA and dOVA were tested, respectively. TEM images of nOVA and dOVA were taken to check for the presence of large aggregates.
MSA (#126674, Calbiochem) was dissolved in 8 M urea, 100 mM Tris-HCl pH 8.2, at 10 mg ml^−1 final concentration. Dithiothreitol (DTT) was added to a final concentration of 10 mM. Air was replaced by N2 and the solution was incubated for 2 h at room temperature. Then, the solution was transferred to ice and iodoacetamide was added from a 1 M stock to a final concentration of 20 mM. […] In the ThT-fluorescence assay 25 μg ml^−1 nMSA and alkyl-MSA were tested, and in the Plg-activation assay 100 μg ml^−1 was tested. The presence of aggregates or fibrils was analyzed using TEM. […]

[2] = target: T1, tPA (Homo sapiens, UniProt P00750); experiment: tPA ELISA with coated protein therapeutics; assay type: binding; settings: for binding of tPA: ELISA, stored at the recommended temperature of 4° C.
T1 sequence (P00750 36-562): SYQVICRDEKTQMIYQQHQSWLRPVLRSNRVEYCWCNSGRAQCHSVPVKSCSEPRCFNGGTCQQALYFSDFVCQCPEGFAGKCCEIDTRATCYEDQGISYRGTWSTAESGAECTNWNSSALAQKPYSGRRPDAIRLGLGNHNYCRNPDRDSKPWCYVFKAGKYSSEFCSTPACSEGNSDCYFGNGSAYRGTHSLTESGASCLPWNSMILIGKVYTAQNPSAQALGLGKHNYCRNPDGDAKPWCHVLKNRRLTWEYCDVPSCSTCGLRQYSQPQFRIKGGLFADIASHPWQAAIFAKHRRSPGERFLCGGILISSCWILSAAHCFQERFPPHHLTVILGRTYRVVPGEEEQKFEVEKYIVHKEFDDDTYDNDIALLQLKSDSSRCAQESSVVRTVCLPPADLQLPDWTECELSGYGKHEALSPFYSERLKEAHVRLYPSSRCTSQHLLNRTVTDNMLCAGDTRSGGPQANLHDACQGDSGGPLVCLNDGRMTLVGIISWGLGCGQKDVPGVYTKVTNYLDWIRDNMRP
Protocol: as §1

[3] = Congo red fluorescence enhancement by biopharmaceuticals; assay type: physicochemical; settings: +/− SD; five μL of protein therapeutic
Protocol: Background signals from buffer, buffer with Congo red and protein/peptide solution without Congo red were subtracted from corresponding measurements with protein solution incubated with Congo red. Fluorescence was measured in triplicate on a Hitachi F-4500 fluorescence spectrophotometer (Ltd., Tokyo, Japan).
(§2) Protein therapeutics were obtained from the local hospital pharmacy and analyzed within the expiry limits as stated by the manufacturers.
Fluorescence of Thioflavin T (ThT; Sigma T-3516, St. Louis, Mo., USA) and Congo red (CR; Aldrich Chemical Company Inc., Milwaukee, Wis., USA) was measured on a Hitachi F-4500 spectrophotometer at an excitation wavelength of 435 nm and emission wavelength of 485 nm for ThT and an excitation wavelength of 550 nm and emission wavelength of 595 nm for Congo red. […] Fluorescence was measured in triplicate. Background fluorescence of both protein in buffer and dye-solution were subtracted from the total fluorescence signal. Five μg/mL fibrillar amyloid-β(1-40) E22Q (Peptide Synthesis Facility of the Dutch Cancer Institute NKI, Amsterdam, The Netherlands) was used as a positive control in all fluorescence assays.

[4] = target: T1, tPA; experiment: tPA/plasminogen activation assay; assay type: biochemical; settings: % of standardized positive control; 1:10 diluted samples
Protocol: β2-GPI was reduced and alkylated as follows. Sixhundredforty μl of β2-GPI stock was mixed with 640 μl of 8 M Urea (cooled solution) in 0.1 M Tris pH-8.2. The solution was degassed with N2 gas for approximately 6 minutes. From a 1 M DTT stock 12.8 μl was added to the solution, mixed and incubated for 3 hours at room temperature. A 1 M Iodoacetamide (Sigma; I-6125) was prepared, of which 25.6 μl was added to the β2-GPI reaction mixture. The solution was subsequently dialysed against PBS. […] Signals obtained with alkyl-β2gpi are compared with those obtained with native β2gpi starting material and with positive control acid/heat denatured amyloid-like misfolded γ-globulins.
Exiqon Peptide Immobilizer plates were blocked for 1 hour with PBS, 1% Tween20 and rinsed twice with distilled water. The conversion of the chromogenic substrate S-2251 (Chromogenix, Italy) by plasmin was kinetically measured at 37° C. on a Spectramax340 microplate reader at a wavelength of 405 nm. […] Denatured γ-globulins (100 μg/ml) with amyloid-like structure was used as reference and positive control. Lyophilized γ-globulins (Sigma, Mo., USA) were dissolved in a 1(:)1 volume ratio of 1,1,1,3,3,3-hexafluoro-2-propanol and trifluoro-acetic acid and subsequently dried under air. Dried γ-globulins was dissolved in H2O to a final concentration of 1 mg/ml and kept at room temperature for at least three days and subsequently stored at −20° C.
as §2

binding of tPA [2]	tPA activation Max. Activation [4] [%]	Kd ([2]; tPA ELISA, immobilized protein, stored at 4° C., read-out: KD of tPA binding) [nM]	Substance	enhancement of ThT fluorescence ([1]; after storage at 65° C.)	Fluorescence CR [3]	enhancement of ThT fluorescence ([1]; stored at 4° C.)
binding of tPA was established	0		Abciximab: abciximab, an inhibitor of blood platelet aggregation (ReoPro, Centocor)	enhanced ThT fluorescence	25 +/− 1 a.u.	
binding of tPA was established	113.95	72	Somatropin: human growth hormone (Genotropin, Pharmacia)		429 +/− 2 a.u.	enhance fluorescence of ThT
